Experiments:
[1] = biological target: Grb2 SH2 (UniProt P62993); experiment: SH2 binding enrichment of the phosphorylated peptide, bacterial display (enrichment ratio); higher = better substrate or ligand; peptides without Tyr show the background
[2] = biological target: SHP2-C SH2; experiment: as above
[3] = biological target: c-Src SH2; experiment: as above
[4] = biological target: FGFR1 (UniProt P11362); experiment: phosphorylation enrichment, bacterial display (enrichment ratio); higher = better substrate or ligand; peptides without Tyr show the background
Sequence of FGFR1 (P11362 whole entry, looked up): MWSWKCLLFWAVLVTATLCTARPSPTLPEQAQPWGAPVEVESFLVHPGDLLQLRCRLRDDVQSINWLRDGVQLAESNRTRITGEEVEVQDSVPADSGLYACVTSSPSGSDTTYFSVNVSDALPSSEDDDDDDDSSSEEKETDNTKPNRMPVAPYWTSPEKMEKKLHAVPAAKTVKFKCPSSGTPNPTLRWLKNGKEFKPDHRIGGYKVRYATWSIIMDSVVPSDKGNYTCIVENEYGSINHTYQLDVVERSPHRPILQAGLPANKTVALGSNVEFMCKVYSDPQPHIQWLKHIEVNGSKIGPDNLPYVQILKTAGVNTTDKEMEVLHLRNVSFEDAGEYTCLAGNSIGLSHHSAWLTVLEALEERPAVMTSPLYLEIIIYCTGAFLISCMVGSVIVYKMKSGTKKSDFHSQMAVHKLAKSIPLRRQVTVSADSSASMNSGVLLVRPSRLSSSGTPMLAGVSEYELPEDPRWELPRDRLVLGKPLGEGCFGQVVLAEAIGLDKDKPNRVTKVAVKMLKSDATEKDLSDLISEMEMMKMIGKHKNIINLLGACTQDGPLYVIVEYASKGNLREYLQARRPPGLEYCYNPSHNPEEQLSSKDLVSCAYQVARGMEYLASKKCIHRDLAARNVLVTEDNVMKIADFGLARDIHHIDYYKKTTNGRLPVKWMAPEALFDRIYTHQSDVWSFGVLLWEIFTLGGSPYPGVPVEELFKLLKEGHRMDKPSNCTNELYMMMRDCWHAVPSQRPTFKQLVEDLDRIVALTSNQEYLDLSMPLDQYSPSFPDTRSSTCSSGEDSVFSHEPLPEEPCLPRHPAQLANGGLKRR

[5] = biological target: EPHB2 (UniProt P29323); experiment: as above
Sequence of EPHB2 (P29323 whole entry, looked up): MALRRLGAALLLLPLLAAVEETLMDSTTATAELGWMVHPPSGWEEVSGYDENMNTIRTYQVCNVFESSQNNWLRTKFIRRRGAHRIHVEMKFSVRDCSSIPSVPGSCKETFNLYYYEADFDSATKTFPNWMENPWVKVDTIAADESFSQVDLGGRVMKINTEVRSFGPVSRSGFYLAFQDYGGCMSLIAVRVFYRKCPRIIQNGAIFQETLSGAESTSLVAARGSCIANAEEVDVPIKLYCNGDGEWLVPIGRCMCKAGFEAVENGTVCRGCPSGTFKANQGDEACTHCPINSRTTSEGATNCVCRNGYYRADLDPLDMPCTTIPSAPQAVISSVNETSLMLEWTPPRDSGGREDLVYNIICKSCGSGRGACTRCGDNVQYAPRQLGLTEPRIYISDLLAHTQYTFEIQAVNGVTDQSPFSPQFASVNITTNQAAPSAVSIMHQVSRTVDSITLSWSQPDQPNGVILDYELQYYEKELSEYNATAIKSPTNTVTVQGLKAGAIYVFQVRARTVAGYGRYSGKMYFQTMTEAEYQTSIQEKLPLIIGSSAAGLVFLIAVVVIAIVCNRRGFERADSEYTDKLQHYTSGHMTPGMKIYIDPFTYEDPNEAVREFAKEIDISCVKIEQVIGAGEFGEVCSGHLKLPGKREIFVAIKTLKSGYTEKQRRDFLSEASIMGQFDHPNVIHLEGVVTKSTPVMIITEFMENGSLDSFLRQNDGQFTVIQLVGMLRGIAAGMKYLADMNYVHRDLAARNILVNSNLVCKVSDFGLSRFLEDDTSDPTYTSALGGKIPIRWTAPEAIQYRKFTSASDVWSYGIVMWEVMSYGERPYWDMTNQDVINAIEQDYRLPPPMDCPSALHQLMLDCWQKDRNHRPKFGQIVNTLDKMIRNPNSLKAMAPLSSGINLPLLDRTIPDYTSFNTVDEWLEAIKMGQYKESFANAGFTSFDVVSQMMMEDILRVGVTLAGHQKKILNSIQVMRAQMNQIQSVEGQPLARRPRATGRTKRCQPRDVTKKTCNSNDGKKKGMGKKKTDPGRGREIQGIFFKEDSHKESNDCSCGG

[6] = biological target: Jak2 (UniProt O60674); experiment: as above
[7] = test system: c-Src; experiment: as above
[8] = biological target: Fes (UniProt P07332); experiment: as above
[9] = test system: Fer (mouse); experiment: as above
[10] = test system: AncSZ; experiment: as above
[11] = biological target: FGFR3 (UniProt P22607); experiment: as above
Sequence of FGFR3 (P22607 whole entry, looked up): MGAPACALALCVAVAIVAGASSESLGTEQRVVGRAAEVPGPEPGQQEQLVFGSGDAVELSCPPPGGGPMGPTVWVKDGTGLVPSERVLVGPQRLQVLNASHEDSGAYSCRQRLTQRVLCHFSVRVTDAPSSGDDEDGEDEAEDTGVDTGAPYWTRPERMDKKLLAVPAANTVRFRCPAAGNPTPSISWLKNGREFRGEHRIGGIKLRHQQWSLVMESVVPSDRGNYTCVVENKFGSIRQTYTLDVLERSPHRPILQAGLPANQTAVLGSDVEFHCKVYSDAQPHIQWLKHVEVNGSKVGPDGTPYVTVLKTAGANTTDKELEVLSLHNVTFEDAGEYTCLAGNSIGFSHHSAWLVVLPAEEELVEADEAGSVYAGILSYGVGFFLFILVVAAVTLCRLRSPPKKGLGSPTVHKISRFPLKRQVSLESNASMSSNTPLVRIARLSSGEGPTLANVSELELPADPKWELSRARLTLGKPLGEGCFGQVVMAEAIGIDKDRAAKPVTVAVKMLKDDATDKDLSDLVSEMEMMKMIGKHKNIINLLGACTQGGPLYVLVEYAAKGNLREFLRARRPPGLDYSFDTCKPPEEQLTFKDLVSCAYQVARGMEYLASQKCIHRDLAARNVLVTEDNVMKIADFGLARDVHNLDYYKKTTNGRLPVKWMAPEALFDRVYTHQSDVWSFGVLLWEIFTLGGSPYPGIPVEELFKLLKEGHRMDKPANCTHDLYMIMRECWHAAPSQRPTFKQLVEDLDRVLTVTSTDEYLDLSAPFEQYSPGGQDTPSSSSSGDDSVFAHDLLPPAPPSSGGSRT

[12] = biological target: MERTK (UniProt Q12866); experiment: as above
Sequence of MERTK (Q12866 whole entry, looked up): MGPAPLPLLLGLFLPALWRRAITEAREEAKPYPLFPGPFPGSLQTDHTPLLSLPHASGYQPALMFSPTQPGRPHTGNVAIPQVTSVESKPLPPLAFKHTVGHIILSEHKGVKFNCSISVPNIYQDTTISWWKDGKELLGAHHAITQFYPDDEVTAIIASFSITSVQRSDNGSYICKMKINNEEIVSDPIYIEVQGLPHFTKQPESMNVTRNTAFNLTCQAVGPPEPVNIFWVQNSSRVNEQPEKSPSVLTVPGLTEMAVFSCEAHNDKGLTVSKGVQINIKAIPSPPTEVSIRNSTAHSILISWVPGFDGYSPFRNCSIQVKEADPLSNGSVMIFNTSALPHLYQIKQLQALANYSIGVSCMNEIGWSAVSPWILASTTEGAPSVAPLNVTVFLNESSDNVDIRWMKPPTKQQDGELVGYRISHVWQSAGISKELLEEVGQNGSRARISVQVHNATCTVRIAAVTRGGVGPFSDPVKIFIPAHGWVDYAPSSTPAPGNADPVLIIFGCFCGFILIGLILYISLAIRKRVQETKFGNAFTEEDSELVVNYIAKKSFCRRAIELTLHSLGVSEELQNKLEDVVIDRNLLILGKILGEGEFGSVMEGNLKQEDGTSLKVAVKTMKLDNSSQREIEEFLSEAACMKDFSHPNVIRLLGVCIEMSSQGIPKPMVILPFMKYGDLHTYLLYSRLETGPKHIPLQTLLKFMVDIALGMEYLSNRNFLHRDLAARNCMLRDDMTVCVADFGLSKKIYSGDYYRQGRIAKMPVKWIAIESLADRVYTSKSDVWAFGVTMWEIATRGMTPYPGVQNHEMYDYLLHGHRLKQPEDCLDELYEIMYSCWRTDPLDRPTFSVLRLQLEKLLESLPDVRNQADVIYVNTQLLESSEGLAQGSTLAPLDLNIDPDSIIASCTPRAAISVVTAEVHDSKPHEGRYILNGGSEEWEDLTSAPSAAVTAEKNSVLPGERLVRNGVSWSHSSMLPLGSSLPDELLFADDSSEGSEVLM

[13] = test system: c-Abl (mouse); experiment: as above
[14] = biological target: Fyn (UniProt P06241); experiment: as above
Sequence of Fyn (P06241 whole entry, looked up): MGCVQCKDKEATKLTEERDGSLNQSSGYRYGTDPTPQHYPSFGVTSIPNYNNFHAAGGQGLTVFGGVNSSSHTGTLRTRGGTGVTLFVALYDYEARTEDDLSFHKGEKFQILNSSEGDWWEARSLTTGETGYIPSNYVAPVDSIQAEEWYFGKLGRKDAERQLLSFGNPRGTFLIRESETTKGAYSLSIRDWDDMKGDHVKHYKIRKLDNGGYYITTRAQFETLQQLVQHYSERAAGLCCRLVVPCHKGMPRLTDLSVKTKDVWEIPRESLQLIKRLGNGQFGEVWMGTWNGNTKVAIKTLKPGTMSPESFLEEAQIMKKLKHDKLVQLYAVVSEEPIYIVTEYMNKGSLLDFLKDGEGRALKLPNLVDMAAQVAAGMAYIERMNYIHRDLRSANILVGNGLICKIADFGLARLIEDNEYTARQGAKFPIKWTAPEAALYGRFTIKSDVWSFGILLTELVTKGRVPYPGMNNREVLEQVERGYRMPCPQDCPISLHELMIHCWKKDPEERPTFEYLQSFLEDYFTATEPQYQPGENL

[15] = biological target: EPHB1 (UniProt P54762); experiment: as above
[16] = biological target: Hck (UniProt P08631); experiment: as above
Sequence of Hck (P08631 whole entry, looked up, the tested form may be a part): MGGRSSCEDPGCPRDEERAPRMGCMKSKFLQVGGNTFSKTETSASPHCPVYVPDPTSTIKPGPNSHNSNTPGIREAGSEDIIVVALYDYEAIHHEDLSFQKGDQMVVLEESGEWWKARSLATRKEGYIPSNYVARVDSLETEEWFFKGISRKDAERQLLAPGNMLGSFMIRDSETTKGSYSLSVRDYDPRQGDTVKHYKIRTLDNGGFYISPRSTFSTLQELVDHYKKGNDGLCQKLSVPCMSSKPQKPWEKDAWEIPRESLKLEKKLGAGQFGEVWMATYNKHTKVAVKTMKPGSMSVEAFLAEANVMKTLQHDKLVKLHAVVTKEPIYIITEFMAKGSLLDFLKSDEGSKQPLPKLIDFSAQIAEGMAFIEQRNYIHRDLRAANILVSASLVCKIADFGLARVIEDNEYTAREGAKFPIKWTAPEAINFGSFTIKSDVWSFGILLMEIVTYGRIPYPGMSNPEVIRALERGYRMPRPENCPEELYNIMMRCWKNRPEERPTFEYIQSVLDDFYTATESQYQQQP
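Wherever SH2 binding enrichment of the phosphorylated peptide, bacterial display is given: peptide library displayed on the E. coli surface as eCPX fusions, selected cells deep-sequenced, score is each peptide's frequency after selection divided by its frequency in the input.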
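Wherever phosphorylation enrichment, bacterial display is given: 11-residue human phosphosite peptides and single-mutation variants displayed on the E. coli surface, counted by deep sequencing, each peptide's frequency after selection divided by its frequency in the unselected input library; frequency after pTyr selection over input frequency; kinase dosed for 20-30% of maximal phosphorylation in three min.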

Row | Sequence | SH2 binding enrichment [1] | SH2 binding enrichment [2] | SH2 binding enrichment [3] | phosphorylation enrichment [4] | phosphorylation enrichment [5] | phosphorylation enrichment [6] | phosphorylation enrichment [7] | phosphorylation enrichment [8] | phosphorylation enrichment [9] | phosphorylation enrichment [10] | phosphorylation enrichment [11] | phosphorylation enrichment [12] | phosphorylation enrichment [13] | phosphorylation enrichment [14] | phosphorylation enrichment [15] | phosphorylation enrichment [16]
1 | IGEGTYRQVFK [CDK13_Y716_G717R_YF] | 0.732 | 0.505 | 0.41 | 0.488 | 0.582 | 0.715 | 0.386 | 0.973 | 0.474 | 0.693 | 0.654 | 0.348 | 0.558 | 0.485 | 0.603 | 0.634
2 | FLNSSYINIST [IL23R_Y178_T175N_YF] | 25 | 1.69 | 4.35 | 0.464 | 0.368 | 0.663 | 0.317 | 0.746 | 0.367 | 0.652 | 0.676 | 0.415 | 0.383 | 0.438 | 0.338 | 0.471
3 | YSKTQYNQVPR [CXADR_Y318_S323R] | 0.974 | 0.533 | 0.589 | 0.421 | 0.431 | 0.451 | 0.462 | 0.542 | 0.471 | 0.531 | 0.532 | 0.514 | 0.465 | 0.319 | 0.315 | 0.487
4 | KIKGRYEKCEP [KRT26_Y119_W118R] | 1.67 | 1.9 | 1.81 | 0.562 | 0.526 | 1.37 | 0.579 | 1.13 | 0.584 | 0.808 | 1.17 | 0.478 | 1.25 | 0.412 | 0.614 | 0.546
5 | SSENPYATIKD [MEGF10_Y1030] | 0.985 | 9.45 | 14 | 0.496 | 0.597 | 0.876 | 2.31 | 0.897 | 0.944 | 0.87 | 0.53 | 0.506 | 0.741 | 1.52 | 0.458 | 1.65
6 | ACVARYIFKRL [LPCAT3_Y348_W344C] | 0.89 | 0.859 | 0.753 | 0.502 | 0.51 | 0.683 | 0.545 | 0.841 | 0.492 | 0.979 | 0.553 | 0.492 | 0.606 | 0.635 | 0.407 | 0.426
7 | GTFVIYVRFGG [FLNB_Y1687_YF] | 1.34 | 0.968 | 0.782 | 0.52 | 0.49 | 0.711 | 0.465 | 1.18 | 0.4 | 1.15 | 0.731 | 0.379 | 0.854 | 0.353 | 0.392 | 0.433

The next lines start with results.

Row | SH2 binding enrichment [1] | SH2 binding enrichment [2] | SH2 binding enrichment [3] | Sequence | phosphorylation enrichment [4] | phosphorylation enrichment [5] | phosphorylation enrichment [6] | phosphorylation enrichment [7] | phosphorylation enrichment [8] | phosphorylation enrichment [9] | phosphorylation enrichment [10] | phosphorylation enrichment [11] | phosphorylation enrichment [12] | phosphorylation enrichment [13] | phosphorylation enrichment [14] | phosphorylation enrichment [15] | phosphorylation enrichment [16]
8 | 0.774 | 0.774 | 0.683 | YRDALYKFIVD [PHEX_Y250_M253I] | 0.952 | 1.02 | 1 | 0.638 | 1.25 | 0.759 | 1.08 | 1.38 | 1.65 | 0.916 | 0.623 | 1.97 | 0.706
9 | 1.77 | 15.5 | 1.92 | SHNKYYMLVAR [MFSD8_Y134] | 5.4 | 0.675 | 1.14 | 0.487 | 0.939 | 0.486 | 0.825 | 3.28 | 2.9 | 0.6 | 0.494 | 0.943 | 0.658
10 | 1.01 | 0.725 | 2.42 | HLMLQYDAVVN [SLC25A32_Y152_R147H] | 1.19 | 1.51 | 1.51 | 0.885 | 2.01 | 1.81 | 1.75 | 1.35 | 1.27 | 1.08 | 1.15 | 0.93 | 1.39
11 | 0.907 | 0.531 | 0.595 | YDDGKYVYVVT [RPS6KA3_Y488] | 1.63 | 0.669 | 1.34 | 1.3 | 1.27 | 0.811 | 1.25 | 1.38 | 0.941 | 0.768 | 1.43 | 0.724 | 1.04
12 | 0.902 | 0.797 | 0.638 | RVGVDYEGRGC [PLOD1_Y675_G678R] | 0.617 | 0.464 | 0.616 | 0.424 | 1.02 | 0.51 | 1.01 | 0.709 | 0.59 | 0.575 | 0.542 | 0.69 | 0.528
13 | 1.07 | 0.645 | 0.534 | EALDFCGEVRT [PTEN_Y155_Y155C] | 0.803 | 0.691 | 1.41 | 0.545 | 1.48 | 0.674 | 1.31 | 1.09 | 0.482 | 0.984 | 0.583 | 0.882 | 0.642
14 | 0.774 | 0.694 | 0.368 | WEPFGFAVTRC [PTPRT_Y412_Y412F] | 0.447 | 0.653 | 1.4 | 0.409 | 1.48 | 0.548 | 1.18 | 0.845 | 0.399 | 1 | 0.409 | 0.702 | 0.456
15 | 0.884 | 1.02 | 0.68 | SAAAIYMVRHP [PMP22_Y117_T118M] | 0.425 | 1.82 | 0.587 | 5.44 | 0.77 | 0.53 | 0.756 | 0.519 | 3.25 | 1.65 | 4.97 | 2.45 | 7.71
16 | 1.27 | 0.944 | 0.573 | NPQKSYFILLF [WAS_Y83_R86L_YF] | 1.01 | 0.551 | 1.05 | 0.337 | 0.969 | 0.414 | 0.836 | 0.906 | 0.398 | 0.606 | 0.449 | 0.546 | 0.43
17 | 0.442 | 0.458 | 0.3 | HLQQSYLPRGT [TEX45_Y396] | 0.97 | 0.773 | 1.38 | 1.32 | 1.26 | 0.697 | 1.04 | 0.927 | 0.66 | 1.59 | 0.939 | 0.622 | 0.661

Source: the supplement of paper PMC10065799, “High-throughput profiling of sequence recognition by tyrosine kinases and SH2 domains using bacterial peptide display” (eLife, 2023)
